In publication PMC7511310, “Ancestral sequence reconstruction produces thermally stable enzymes with mesophilic enzyme-like catalytic properties” (Scientific Reports, 2020):

How the values were obtained:
Experiment in all cases: A340 NADH formation, steady state, Michaelis-Menten fit
[1] = substrate: CC(C)[C@H](C(=O)O)[C@@H](O)C(=O)O; type: biochemical, Bacillus subtilis; conditions: 40 °C, 50 mM HEPES pH 8.0, 100 mM KCl, 5 mM MgCl2, 5 mM NAD+ fixed, 40.0 °C
Text: (§1) A340 NADH formation, steady state, Michaelis-Menten fit on B. subtilis IPMDH

[2] = substrate: NC(=O)c1ccc[n+]([C@@H]2O[C@H](COP(=O)(O)OP(=O)(O)OC[C@H]3O[C@@H](n4cnc5c(N)ncnc54)[C@H](O)[C@@H]3O)[C@@H](O)[C@H]2O)c1; type: biochemical, Bacillus subtilis; conditions: 25 °C, 50 mM HEPES pH 8.0, 100 mM KCl, 5 mM MgCl2, 0.2 mM D-3-IPM fixed, 25.0 °C, varied: cofactor
Text: as §1

[3] = substrate: CC(C)[C@H](C(=O)O)[C@@H](O)C(=O)O; type: biochemical, Saccharomyces cerevisiae; conditions: 40 °C, 50 mM HEPES pH 8.0, 100 mM KCl, 5 mM MgCl2, 5 mM NAD+ fixed, 40.0 °C
Text: (§2) A340 NADH formation, steady state, Michaelis-Menten fit on S. cerevisiae IPMDH

[4] = substrate: NC(=O)c1ccc[n+]([C@@H]2O[C@H](COP(=O)(O)OP(=O)(O)OC[C@H]3O[C@@H](n4cnc5c(N)ncnc54)[C@H](O)[C@@H]3O)[C@@H](O)[C@H]2O)c1; type: biochemical, Saccharomyces cerevisiae; conditions: 25 °C, 50 mM HEPES pH 8.0, 100 mM KCl, 5 mM MgCl2, 0.2 mM D-3-IPM fixed, 25.0 °C, varied: cofactor
Text: as §2

[5] = substrate: CC(C)[C@H](C(=O)O)[C@@H](O)C(=O)O; type: biochemical, Thermus thermophilus; conditions: 40 °C, 50 mM HEPES pH 8.0, 100 mM KCl, 5 mM MgCl2, 5 mM NAD+ fixed, 40.0 °C
Text: (§3) A340 NADH formation, steady state, Michaelis-Menten fit on T. thermophilus IPMDH

[6] = substrate: NC(=O)c1ccc[n+]([C@@H]2O[C@H](COP(=O)(O)OP(=O)(O)OC[C@H]3O[C@@H](n4cnc5c(N)ncnc54)[C@H](O)[C@@H]3O)[C@@H](O)[C@H]2O)c1; type: biochemical, Thermus thermophilus; conditions: 25 °C, 50 mM HEPES pH 8.0, 100 mM KCl, 5 mM MgCl2, 0.2 mM D-3-IPM fixed, 25.0 °C, varied: cofactor
Text: as §3

B1: B. subtilis IPMDH (Bacillus subtilis subsp. subtilis str. 168) (protein)
chain: MKKRIALLPGDGIGPEVLESATDVLKSVAERFNHEFEFEYGLIGGAAIDEHHNPLPEETVAACKNADAILLGAVGGPKWDQNPSELRPEKGLLSIRKQLDLFANLRPVKVFESLSDASPLKKEYIDNVDFVIVRELTGGLYFGQPSKRYVNTEGEQEAVDTLFYKRTEIERVIREGFKMAAARKGKVTSVDKANVLESSRLWREVAEDVAQEFPDVKLEHMLVDNAAMQLIYAPNQFDVVVTENMFGDILSDEASMLTGSLGMLPSASLSSSGLHLFEPVHGSAPDIAGKGMANPFAAILSAAMLLRTSFGLEEEAKAVEDAVNKVLASGKRTRDLARSEEFSSTQAITEEVKAAIMSENTISNV
notes: recombinant from E. coli Rosetta2 (DE3), pET21c(+) NdeI-BamHI, purified by HiTrap-Q, HiTrap-Butyl and ResourceQ; no tag mentioned
Work on B1 yielded a Km [1] of 0.78 ± 0.11 µM, a kcat [1] of 9.4 ± 0.2 s⁻¹ and a Km [2] of 110 ± 10 µM. It also gave a kcat [2] of 2.8 ± 0.1 s⁻¹.

B2: S. cerevisiae IPMDH (Saccharomyces cerevisiae S288C) (protein)
chain: MSAPKKIVVLPGDHVGQEITAEAIKVLKAISDVRSNVKFDFENHLIGGAAIDATGVPLPDEALEASKKADAVLLGAVGGPKWGTGSVRPEQGLLKIRKELQLYANLRPCNFASDSLLDLSPIKPQFAKGTDFVVVRELVGGIYFGKRKEDDGDGVAWDSEQYTVPEVQRITRMAAFMALQHEPPLPIWSLDKANVLASSRLWRKTVEETIKNEFPTLKVQHQLIDSAAMILVKNPTHLNGIIITSNMFGDIISDEASVIPGSLGLLPSASLASLPDKNTAFGLYEPCHGSAPDLPKNKVNPIATILSAAMMLKLSLNLPEEGKAIEDAVKKVLDAGIRTGDLGGSNSTTEVGDAVAEEVKKILA
notes: as for B1
In the case of B2, the Km [3] is reported as 4.5 ± 0.7 µM, the kcat [3] is reported as 20 ± 1 s⁻¹ and the Km [4] is reported as 130 ± 10 µM. For the same protein, the kcat [4] was 5.1 ± 0.1 s⁻¹.

B3: T. thermophilus IPMDH (Thermus thermophilus HB8) (protein)
chain: MKVAVLPGDGIGPEVTEAALKVLRALDEAEGLGLAYEVFPFGGAAIDAFGEPFPEPTRKGVEEAEAVLLGSVGGPKWDGLPRKIRPETGLLSLRKSQDLFANLRPAKVFPGLERLSPLKEEIARGVDVLIVRELTGGIYFGEPRGMSEAEAWNTERYSKPEVERVARVAFEAARKRRKHVVSVDKANVLEVGEFWRKTVEEVGRGYPDVALEHQYVDAMAMHLVRSPARFDVVVTGNIFGDILSDLASVLPGSLGLLPSASLGRGTPVFEPVHGSAPDIAGKGIANPTAAILSAAMMLEHAFGLVELARKVEDAVAKALLETPPPDLGGSAGTEAFTATVLRHLA
notes: extant thermophilic wild type; homodimer
For B3, the Km [5] was 2.3 ± 0.8 µM, the kcat [5] was 2.4 ± 0.1 s⁻¹ and the Km [6] was 2.2 ± 0.3 µM. It also gave a kcat [6] of 0.37 ± 0.01 s⁻¹.
